Test results as given in the supplement of paper PMC11780869.

Tested on: Bacillus subtilis
Experiment: cleaved RNA product abundance (RNA/gDNA barcode ratio) relative to median wild-type variant (ratio to wild type); higher = more accumulation of the downstream cleavage product
Conditions: cleavage site: cggR-gapA (positions -7 to +36 mutated)
Summary of the method: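 Reporter mRNAs based on truncated aprE or tetM carried barcoded, mutagenized RNase Y cleavage-site windows built from oligos with a 9% error rate and were integrated into the B. subtilis chromosome. Cultures grew in LB at 37°C from OD600 0.0003 to 0.3. Cleaved RNA was gel-selected, reverse transcribed and barcode-sequenced together with genomic DNA barcodes, and UMIs were collapsed. Cleaved product abundance is the per-construct ratio of RNA to gDNA barcodes, scaled to the median of constructs carrying the unmutated site.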

[1] = experiment (reporter, strain, medium): exp 4a: truncated aprE reporter, strain BJT201 with 2% xylose (RNase J1 expressed)
[2] = experiment (reporter, strain, medium): exp 2b: truncated aprE reporter, strain BJT200

Sequence | cleaved RNA product abundance [1] | cleaved RNA product abundance [2] | cleaved RNA product abundance (experiment (reporter, strain, medium): exp 6: tetM reporter, strain 168)
ACAGACGAAGGAGCCGCAAAGAAGTTATCAAGGGATTAATAATCCCTCAATATAAATATCTCTCACTTATTTAAA | 0.301 |  | 
ACAGACGAAGGAGCCGCAAAGAAGTTATCAAGGGATTAATAATCCCTCATTATAAATATCTCTCACTTATTTAAA | 0.314 |  | 
ACAGACGAAGGAGCCGCAAAGAAGTTATCAAGGTATGAATAATCCCTCAATATAAATATCTCTCACTTATTTAAA | 0.169 |  | 
ACAGACGAAGGAGCCGCAAAGAAGTTATCAAGTGATGAATAATCCCTCAATATAAATATCTCTCACTTATTTAAA | 0.0945 |  | 
ACAGACGAAGGAGCCGCAAAGAAGTTATCAATGGATGAATAATCCCTCAATATAAATATCTCTCACTTATTTAAA | 0.146 |  | 
ACAGACGAAGGAGCCGCAAAGAAGTTATCAGGGGATGAATAATCCCTCAATATAAATATCTCTCACTTATTTAAA |  | 0.323 | 
ACAGACGAAGGAGCCGCAAAGAAGTTATCATGGGATGAATAATCCCTCAATATAAATATCTCTCACTTATTTAAA | 0.262 |  | 
ACAGACGAAGGAGCCGCAAAGAAGTTATCTAGGGATGAATAATCCCTCAATATAAATATCTCTCACTTATTTAAA | 0.316 |  | 
ACAGACGAAGGAGCCGCAAAGAAGTTATGAAAGGATGAATAATCCCTCAATATAAATATCTCTCACTTATTTAAA | 0.178 |  | 
ACAGACGAAGGAGCCGCAAAGAAGTTATGAACGGATGAATAATCCCTCAATATAAATATCTCTCACTTATTTAAA | 0.242 | 0.177 | 
ACAGACGAAGGAGCCGCAAAGAAGTTATGAAGAGATGAATAATCCCTCAATATAAATATCTCTCACTTATTTAAA | 0.0998 |  | 
ACAGACGAAGGAGCCGCAAAGAAGTTATGAAGCGATGAATAATCCCTCAATATAAATATCTCTCACTTATTTAAA | 0.0897 |  | 
ACAGACGAAGGAGCCGCAAAGAAGTTATGAAGGAATGAATAATCCCTCAATATAAATATCTCTCACTTATTTAAA | 0.0818 | 0.139 | 
ACAGACGAAGGAGCCGCAAAGAAGTTATGAAGGCATGAATAATCCCTCAATATAAATATCTCTCACTTATTTAAA | 0.116 | 0.108 | 
ACAGACGAAGGAGCCGCAAAGAAGTTATGAAGGGACGAATAATCCCTCAATATAAATATCTCTCACTTATTTAAA | 0.318 |  | 
ACAGACGAAGGAGCCGCAAAGAAGTTATGAAGGGAGGAATAATCCCTCAATATAAATATCTCTCACTTATTTAAA |  | 0.22 | 
ACAGACGAAGGAGCCGCAAAGAAGTTATGAAGGGATAAATAATCCCTCAATATAAATATCTCTCACTTATTTAAA | 0.542 | 0.349 | 
ACAGACGAAGGAGCCGCAAAGAAGTTATGAAGGGATGAATAACCCCTCAATATAAATATCTCTCACTTATTTAAA | 0.419 |  | 
ACAGACGAAGGAGCCGCAAAGAAGTTATGAAGGGATGAATAATCCATCAATATAAATATCTCTCACTTATTTAAA |  | 0.185 | 
ACAGACGAAGGAGCCGCAAAGAAGTTATGAAGGGATGAATAATCCCACAATATAAATATCTCTCACTTATTTAAA |  | 0.138 | 

Sequence | cleaved RNA product abundance [1] | cleaved RNA product abundance [2] | cleaved RNA product abundance (experiment (reporter, strain, medium): exp 6: tetM reporter, strain 168)
ACAGACGAAGGAGCCGCAAAGAAGTTATGAAGGGATGAATAATCCCTAAATATAAATATCTCTCACTTATTTAAA | 0.711 | 0.38 | 
ACAGACGAAGGAGCCGCAAAGAAGTTATGAAGGGATGAATAATCCCTCAATATAAATATCTCTCACTTATTTAAA | 0.502 | 0.384 | 0.205
ACAGACGAAGGAGCCGCAAAGAAGTTATGAAGGGATGAATAATCCCTCAATATACATATCTCTCACTTATTTAAA | 0.344 |  | 
ACAGACGAAGGAGCCGCAAAGAAGTTATGAAGGGATGAATAATCCCTCAATATAGATATCTCTCACTTATTTAAA | 0.446 |  | 
ACAGACGAAGGAGCCGCAAAGAAGTTATGAAGGGATGAATAATCCCTCAATATTAATATCTCTCACTTATTTAAA | 0.125 |  | 
ACAGACGAAGGAGCCGCAAAGAAGTTATGAAGGGATGAATAATCCCTCTATATAAATATCTCTCACTTATTTAAA | 0.516 |  | 
ACAGACGAAGGAGCCGCAAAGAAGTTATGAAGGGATGAATAATCCCTTAATATAAATATCTCTCACTTATTTAAA | 0.789 |  | 
ACAGACGAAGGAGCCGCAAAGAAGTTATGAAGGGATGAATAATCCGTCAATATAAATATCTCTCACTTATTTAAA | 0.222 |  | 
ACAGACGAAGGAGCCGCAAAGAAGTTATGAAGGGATGAATAATCCTTCAATATAAATATCTCTCACTTATTTAAA | 0.441 |  | 
ACAGACGAAGGAGCCGCAAAGAAGTTATGAAGGGATGAATAATCGCTCAATATAAATATCTCTCACTTATTTAAA | 0.0808 |  | 
ACAGACGAAGGAGCCGCAAAGAAGTTATGAAGGGATGAATAATTCCTCAATATAAATATCTCTCACTTATTTAAA | 0.316 | 0.274 | 
ACAGACGAAGGAGCCGCAAAGAAGTTATGAAGGGATGAATTATCCCTCAATATAAATATCTCTCACTTATTTAAA | 0.343 | 0.232 | 
ACAGACGAAGGAGCCGCAAAGAAGTTATGAAGGGATGCATAATCCCTCAATATAAATATCTCTCACTTATTTAAA | 0.542 |  | 
ACAGACGAAGGAGCCGCAAAGAAGTTATGAAGGGATGTATAATCCCTCAATATAAATATCTCTCACTTATTTAAA | 0.311 |  | 
ACAGACGAAGGAGCCGCAAAGAAGTTATGAAGGGATTAATAATCCCTCAATATAAATATCTCTCACTTATTTAAA | 0.476 | 0.402 | 
ACAGACGAAGGAGCCGCAAAGAAGTTATGAAGGTATGAATAATCCCTCAATATAAATATCTCTCACTTATTTAAA | 0.0823 | 0.113 | 
ACAGACGAAGGAGCCGCAAAGAAGTTATGAAGTGATGAATAATCCCTCAATATAAATATCTCTCACTTATTTAAA | 0.0812 | 0.0796 | 
ACAGACGAAGGAGCCGCAAAGAAGTTATGAATGGATGAATAATCCCTCAATATAAATATCTCTCACTTATTTAAA | 0.147 |  | 
ACAGACGAAGGAGCCGCAAAGAAGTTATGACGGGATGAATAATCCCTCAATATAAATATCTCTCACTTATTTAAA | 0.844 |  | 
ACAGACGAAGGAGCCGCAAAGAAGTTATTAAAAGATGAATAATCCCTCAATATAAATATCTCTCACTTATTTAAA | 0.0921 | 0.107 | 

Sequence | cleaved RNA product abundance [1] | cleaved RNA product abundance [2] | cleaved RNA product abundance (experiment (reporter, strain, medium): exp 6: tetM reporter, strain 168)
ACAGACGAAGGAGCCGCAAAGAAGTTATTAAAAGATTAATAATCCCTCAATATAAATATCTCTCACTTATTTAAA |  | 0.104 | 
ACAGACGAAGGAGCCGCAAAGAAGTTATTAAACGATGAATAATCCCTCAATATAAATATCTCTCACTTATTTAAA | 0.109 | 0.0904 | 
ACAGACGAAGGAGCCGCAAAGAAGTTATTAAACGATGAATAATCTCTCAATATAAATATCTCTCACTTATTTAAA | 0.179 | 0.109 | 
ACAGACGAAGGAGCCGCAAAGAAGTTATTAAAGAATGAATAATACCTCAATATAAATATCTCTCACTTATTTAAA | 0.159 |  | 
ACAGACGAAGGAGCCGCAAAGAAGTTATTAAAGAATGAATAATCCCTCAATATAAATATCTCTCACTTATTTAAA | 0.114 | 0.0737 | 
ACAGACGAAGGAGCCGCAAAGAAGTTATTAAAGCATGAATAATCCCTCAATATAAATATCTCTCACTTATTTAAA | 0.11 | 0.119 | 
ACAGACGAAGGAGCCGCAAAGAAGTTATTAAAGCATTAATAATCCCTCAATATAAATATCTCTCACTTATTTAAA | 0.134 |  | 
ACAGACGAAGGAGCCGCAAAGAAGTTATTAAAGGAAGAATAATCCCTCAATATAAATATCTCTCACTTATTTAAA | 0.112 | 0.0711 | 
ACAGACGAAGGAGCCGCAAAGAAGTTATTAAAGGACGAATAATCCCTCAATATAAATATCTCTCACTTATTTAAA | 0.103 |  | 
ACAGACGAAGGAGCCGCAAAGAAGTTATTAAAGGAGGAATAATCCCTCAATATAAATATCTCTCACTTATTTAAA | 0.25 |  | 
ACAGACGAAGGAGCCGCAAAGAAGTTATTAAAGGATAAATAAACCCTCAATATAAATATCTCTCACTTATTTAAA | 0.128 |  | 
ACAGACGAAGGAGCCGCAAAGAAGTTATTAAAGGATAAATAATCCCTCAATATAAATATCTCTCACTTATTTAAA | 0.139 | 0.108 | 
ACAGACGAAGGAGCCGCAAAGAAGTTATTAAAGGATAAATAATCTCTCAATATAAATATCTCTCACTTATTTAAA | 0.112 |  | 
ACAGACGAAGGAGCCGCAAAGAAGTTATTAAAGGATCAATAATCCCTCAATATAAATATCTCTCACTTATTTAAA | 0.115 |  | 
ACAGACGAAGGAGCCGCAAAGAAGTTATTAAAGGATGAAAAATCCCTCAATATAAATATCTCTCACTTATTTAAA | 0.183 | 0.104 | 
ACAGACGAAGGAGCCGCAAAGAAGTTATTAAAGGATGAACAATCCCTCAATATAAATATCTCTCACTTATTTAAA | 0.207 | 0.0976 | 
ACAGACGAAGGAGCCGCAAAGAAGTTATTAAAGGATGAAGAATCCCTCAATATAAATATCTCTCACTTATTTAAA | 0.232 |  | 
ACAGACGAAGGAGCCGCAAAGAAGTTATTAAAGGATGAATAAACCCTCAATATAAATATCTCTCACTTATTTAAA | 0.101 | 0.115 | 
ACAGACGAAGGAGCCGCAAAGAAGTTATTAAAGGATGAATAACCCCTCAATATAAATATCTCTCACTTATTTAAA | 0.108 | 0.105 | 
